The assay concerns the target GOLPH3 (endogenous) (human (endogenous in HeLa)) (UniProt Q9H4A6). Kind of assay: co-IP. The conditions noted are these: remark: other sources report otherwise.

Sequence of GOLPH3 (endogenous) (human (endogenous in HeLa)) (Q9H4A6 whole entry): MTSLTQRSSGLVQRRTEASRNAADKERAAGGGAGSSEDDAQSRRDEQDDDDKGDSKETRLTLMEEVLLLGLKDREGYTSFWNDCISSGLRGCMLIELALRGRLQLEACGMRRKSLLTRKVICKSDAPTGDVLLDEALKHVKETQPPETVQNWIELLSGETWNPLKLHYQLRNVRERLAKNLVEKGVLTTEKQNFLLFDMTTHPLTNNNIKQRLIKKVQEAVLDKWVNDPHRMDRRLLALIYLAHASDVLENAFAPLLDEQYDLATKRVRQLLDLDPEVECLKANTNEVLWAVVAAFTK

The substance MYO18A (endogenous), Q92614 1-2054 yielded a fold increase in association after CPT versus DMSO control of 3.7 fold.

For the origin of these results see PMC4018323.
